Holding throughout (assay): cell_activity; split GFP integration
Settings in all cases: tags: 3xFlag, SV40 NLS; chain copies: 2

One data set addresses T1, ZFM268 TAL-PBx (synthetic construct).
T1 chain: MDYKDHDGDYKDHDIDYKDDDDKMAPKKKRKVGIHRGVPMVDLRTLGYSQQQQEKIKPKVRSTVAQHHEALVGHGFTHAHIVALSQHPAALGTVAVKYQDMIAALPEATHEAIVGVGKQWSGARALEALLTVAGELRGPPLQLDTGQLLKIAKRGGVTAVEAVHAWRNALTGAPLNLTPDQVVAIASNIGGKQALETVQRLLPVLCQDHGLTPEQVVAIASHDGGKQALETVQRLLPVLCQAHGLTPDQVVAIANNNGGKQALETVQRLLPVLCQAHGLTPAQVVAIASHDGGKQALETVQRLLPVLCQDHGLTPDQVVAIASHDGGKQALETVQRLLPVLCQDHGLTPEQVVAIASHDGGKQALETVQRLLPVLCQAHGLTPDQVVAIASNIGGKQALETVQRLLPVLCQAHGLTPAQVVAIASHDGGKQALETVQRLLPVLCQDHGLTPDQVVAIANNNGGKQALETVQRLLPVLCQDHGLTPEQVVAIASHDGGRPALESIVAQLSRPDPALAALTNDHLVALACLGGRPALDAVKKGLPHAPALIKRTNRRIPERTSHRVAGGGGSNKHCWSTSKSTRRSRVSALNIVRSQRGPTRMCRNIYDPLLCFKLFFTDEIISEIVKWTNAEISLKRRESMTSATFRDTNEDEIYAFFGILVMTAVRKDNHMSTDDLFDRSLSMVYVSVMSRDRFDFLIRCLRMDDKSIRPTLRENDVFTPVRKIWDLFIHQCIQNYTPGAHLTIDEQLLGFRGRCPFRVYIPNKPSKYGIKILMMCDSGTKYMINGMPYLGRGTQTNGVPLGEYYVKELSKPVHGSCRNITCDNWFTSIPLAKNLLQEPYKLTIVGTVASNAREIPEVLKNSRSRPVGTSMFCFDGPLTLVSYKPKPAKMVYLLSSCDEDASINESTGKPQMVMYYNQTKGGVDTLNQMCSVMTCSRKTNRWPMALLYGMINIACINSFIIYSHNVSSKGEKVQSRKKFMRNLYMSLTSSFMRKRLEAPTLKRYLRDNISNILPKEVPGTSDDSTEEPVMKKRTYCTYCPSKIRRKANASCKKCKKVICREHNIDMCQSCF
The protocol:
(§1) To determine if the optimal spacer length is consistent from one TAL-ssSPB to the next, similar reporters were constructed with TAL target sites for the GFP1 Left, GFP2 Right, GFP2 Left, and ZFM268 TAL-PBxs as described above. These constructs were tested using a narrower set of spacer lengths of 11 bp, 12 bp, 13 bp, 14 bp, 15 bp constructs for GFP1 Left (SEQ ID Nos. 345-349), GFP2 Left (SEQ ID Nos. 350-354), GFP2 Right (SEQ ID Nos. 355-359) and ZFM268 (SEQ ID NOs: 340-344).
(§2) Each reporter plasmid and the donor plasmid were cotransfected into HEK293T cells with the corresponding TAL-ssSPB expression plasmid. 120,000 HEK293T cells were plated in 24 well plates in 500 ul of DMEM medium supplemented with 10% FBS. The following day, a transfection mixture containing 50 ng of the TAL-ssSPB expression vector, 225 ng of the reporter plasmid, 225 ng of donor plasmid and 1 μl of JetPrime transfection reagent in a total volume of 50 μl of JetPrime buffer were assembled. The mixture was added to the HEK293T cells and the cells were incubated for four days at 37° C. at 5% CO2, splitting the cells 1:6 at day one. The percentage of on-target site-specific transposition positive cells for the various spacer length constructs were determined by FACS analysis and the results are shown in Table 18.

Another data set has as its target T2, GFP2 Right TAL-PBx (synthetic construct).
T2 chain: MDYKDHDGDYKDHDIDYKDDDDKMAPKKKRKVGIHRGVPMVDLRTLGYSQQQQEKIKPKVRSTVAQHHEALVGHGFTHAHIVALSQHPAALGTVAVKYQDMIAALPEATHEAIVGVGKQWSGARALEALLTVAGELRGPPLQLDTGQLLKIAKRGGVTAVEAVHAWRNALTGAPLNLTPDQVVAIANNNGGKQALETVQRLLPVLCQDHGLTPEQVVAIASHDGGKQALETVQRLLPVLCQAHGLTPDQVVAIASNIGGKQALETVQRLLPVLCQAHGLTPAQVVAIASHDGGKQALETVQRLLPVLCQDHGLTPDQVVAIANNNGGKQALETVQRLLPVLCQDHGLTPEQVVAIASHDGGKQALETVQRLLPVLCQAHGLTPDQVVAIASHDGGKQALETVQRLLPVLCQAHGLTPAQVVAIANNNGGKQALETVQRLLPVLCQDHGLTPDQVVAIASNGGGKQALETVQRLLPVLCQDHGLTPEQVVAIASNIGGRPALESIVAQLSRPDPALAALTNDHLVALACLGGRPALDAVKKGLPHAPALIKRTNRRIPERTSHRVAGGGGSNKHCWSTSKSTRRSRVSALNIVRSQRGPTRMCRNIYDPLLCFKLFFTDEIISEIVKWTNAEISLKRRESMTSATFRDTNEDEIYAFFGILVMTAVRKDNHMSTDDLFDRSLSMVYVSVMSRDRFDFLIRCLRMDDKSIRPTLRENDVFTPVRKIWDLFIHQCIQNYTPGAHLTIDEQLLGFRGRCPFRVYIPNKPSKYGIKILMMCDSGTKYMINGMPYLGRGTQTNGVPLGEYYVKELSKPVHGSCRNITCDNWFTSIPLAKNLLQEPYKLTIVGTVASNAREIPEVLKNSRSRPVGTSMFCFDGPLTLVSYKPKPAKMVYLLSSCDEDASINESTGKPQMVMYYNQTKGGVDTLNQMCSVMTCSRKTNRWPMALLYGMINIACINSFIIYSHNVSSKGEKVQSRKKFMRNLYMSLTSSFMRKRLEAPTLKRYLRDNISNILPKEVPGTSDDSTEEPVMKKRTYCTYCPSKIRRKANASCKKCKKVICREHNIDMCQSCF
The protocol:
as §1, §2

In a further data set the target is T3, GFP1 Left TAL-PBx (synthetic construct).
T3 chain: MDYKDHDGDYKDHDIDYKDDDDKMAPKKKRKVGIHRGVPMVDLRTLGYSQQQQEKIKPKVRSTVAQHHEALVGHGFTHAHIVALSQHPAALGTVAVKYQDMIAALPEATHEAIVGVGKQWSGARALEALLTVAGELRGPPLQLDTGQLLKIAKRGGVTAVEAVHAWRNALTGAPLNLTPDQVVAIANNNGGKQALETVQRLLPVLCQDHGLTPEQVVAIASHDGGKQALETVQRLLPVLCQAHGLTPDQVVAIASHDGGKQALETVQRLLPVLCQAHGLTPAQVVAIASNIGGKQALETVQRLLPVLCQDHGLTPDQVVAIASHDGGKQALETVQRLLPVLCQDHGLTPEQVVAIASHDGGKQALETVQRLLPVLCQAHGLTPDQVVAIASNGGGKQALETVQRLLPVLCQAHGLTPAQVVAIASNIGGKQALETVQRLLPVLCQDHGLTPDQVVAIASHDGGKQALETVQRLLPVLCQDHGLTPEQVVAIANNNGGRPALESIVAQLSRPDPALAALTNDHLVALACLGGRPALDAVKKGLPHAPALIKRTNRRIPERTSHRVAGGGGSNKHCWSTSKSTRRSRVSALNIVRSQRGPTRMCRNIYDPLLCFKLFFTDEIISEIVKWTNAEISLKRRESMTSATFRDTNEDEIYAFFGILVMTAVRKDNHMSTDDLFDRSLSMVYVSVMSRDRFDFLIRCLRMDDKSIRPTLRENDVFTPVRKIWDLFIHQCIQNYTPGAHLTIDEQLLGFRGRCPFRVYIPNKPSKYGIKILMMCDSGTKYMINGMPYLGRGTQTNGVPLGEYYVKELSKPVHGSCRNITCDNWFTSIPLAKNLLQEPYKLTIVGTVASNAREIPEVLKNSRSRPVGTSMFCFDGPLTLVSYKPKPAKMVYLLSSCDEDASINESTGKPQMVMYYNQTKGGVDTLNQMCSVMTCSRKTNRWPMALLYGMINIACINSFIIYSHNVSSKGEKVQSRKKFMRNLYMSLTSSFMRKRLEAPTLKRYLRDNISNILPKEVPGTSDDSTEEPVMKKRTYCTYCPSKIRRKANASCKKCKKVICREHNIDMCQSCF
The protocol: as §1, §2

Another data set deals with T4, GFP2 Left TAL-PBx (synthetic construct).
T4 chain: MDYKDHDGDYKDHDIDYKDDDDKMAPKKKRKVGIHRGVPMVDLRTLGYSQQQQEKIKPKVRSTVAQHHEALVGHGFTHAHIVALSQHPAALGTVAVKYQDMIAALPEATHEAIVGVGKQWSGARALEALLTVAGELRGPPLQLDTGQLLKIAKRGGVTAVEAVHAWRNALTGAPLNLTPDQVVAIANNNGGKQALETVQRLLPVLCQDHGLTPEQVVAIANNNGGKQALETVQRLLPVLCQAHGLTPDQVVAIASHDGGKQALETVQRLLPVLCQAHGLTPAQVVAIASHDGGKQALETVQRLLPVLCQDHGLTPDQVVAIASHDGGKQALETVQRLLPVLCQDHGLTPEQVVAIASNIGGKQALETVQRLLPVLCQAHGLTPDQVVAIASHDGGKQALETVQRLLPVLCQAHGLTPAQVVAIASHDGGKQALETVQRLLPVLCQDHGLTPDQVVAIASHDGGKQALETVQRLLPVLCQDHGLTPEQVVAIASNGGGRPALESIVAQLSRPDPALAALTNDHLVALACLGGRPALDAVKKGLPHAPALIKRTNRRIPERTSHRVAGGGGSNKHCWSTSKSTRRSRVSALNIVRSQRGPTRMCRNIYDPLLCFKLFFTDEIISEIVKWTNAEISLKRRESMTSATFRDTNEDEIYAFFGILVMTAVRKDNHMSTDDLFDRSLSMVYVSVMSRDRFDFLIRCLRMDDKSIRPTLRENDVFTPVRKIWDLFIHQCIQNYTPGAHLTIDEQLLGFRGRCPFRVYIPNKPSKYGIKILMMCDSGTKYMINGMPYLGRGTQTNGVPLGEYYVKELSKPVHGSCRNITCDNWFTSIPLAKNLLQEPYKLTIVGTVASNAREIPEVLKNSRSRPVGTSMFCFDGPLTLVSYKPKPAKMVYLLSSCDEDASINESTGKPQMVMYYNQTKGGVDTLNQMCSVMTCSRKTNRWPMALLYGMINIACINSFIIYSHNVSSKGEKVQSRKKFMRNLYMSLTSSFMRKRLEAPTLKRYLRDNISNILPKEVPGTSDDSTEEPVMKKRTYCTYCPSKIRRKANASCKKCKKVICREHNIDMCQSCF
How it is done:
as §1, §2

B1: ZFM268 TAL 13 bp spacer (dsDNA)
DNA 1: TACGCCCACGCGCAATCTCACGGCTTAACTACTGACCTGAAGCGTGGGCGTA
DNA 2: TACGCCCACGCTTCAGGTCAGTAGTTAAGCCGTGAGATTGCGCGTGGGCGTA
On to B1, for which the activity with ZFM268 TAL-PBx came to 21.2 % GFP+.

B2: GFP2R 12 bp spacer (dsDNA)
DNA 1: TGCACGCCGTAGCAATCTCCGGCTTAACTACTGACTGAATACGGCGTGCA
DNA 2: TGCACGCCGTATTCAGTCAGTAGTTAAGCCGGAGATTGCTACGGCGTGCA
In the data set with GFP2 Right TAL-PBx, B2 gave an activity of 16.9 % GFP+.

B3: GFP2R 13 bp spacer (dsDNA)
DNA 1: TGCACGCCGTAGCAATCTCACGGCTTAACTACTGACCTGAATACGGCGTGCA
DNA 2: TGCACGCCGTATTCAGGTCAGTAGTTAAGCCGTGAGATTGCTACGGCGTGCA
B3 yielded an activity with GFP2 Right TAL-PBx of 15.8 % GFP+.

B4: ZFM268 TAL 12 bp spacer (dsDNA)
DNA 1: TACGCCCACGCGCAATCTCCGGCTTAACTACTGACTGAAGCGTGGGCGTA
DNA 2: TACGCCCACGCTTCAGTCAGTAGTTAAGCCGGAGATTGCGCGTGGGCGTA
The molecule B4 displayed an activity with ZFM268 TAL-PBx of 21.8 % GFP+.

B5: GFP1L 13 bp spacer (dsDNA)
DNA 1: TGCCACCTACGGCAATCTCACGGCTTAACTACTGACCTGAACGTAGGTGGCA
DNA 2: TGCCACCTACGTTCAGGTCAGTAGTTAAGCCGTGAGATTGCCGTAGGTGGCA
Molecule B5 returned an activity in the data set with GFP1 Left TAL-PBx of 17 % GFP+.

B6: GFP2L 12 bp spacer (dsDNA)
DNA 1: TGGCCCACCCTGCAATCTCCGGCTTAACTACTGACTGAAAGGGTGGGCCA
DNA 2: TGGCCCACCCTTTCAGTCAGTAGTTAAGCCGGAGATTGCAGGGTGGGCCA
In the case of B6, the activity with GFP2 Left TAL-PBx amounted to 22.4 % GFP+.

B7: GFP1L 12 bp spacer (dsDNA)
DNA 1: TGCCACCTACGGCAATCTCCGGCTTAACTACTGACTGAACGTAGGTGGCA
DNA 2: TGCCACCTACGTTCAGTCAGTAGTTAAGCCGGAGATTGCCGTAGGTGGCA
On to B7, for which the activity with GFP1 Left TAL-PBx came to 13.7 % GFP+.

B8: GFP2L 13 bp spacer (dsDNA)
DNA 1: TGGCCCACCCTGCAATCTCACGGCTTAACTACTGACCTGAAAGGGTGGGCCA
DNA 2: TGGCCCACCCTTTCAGGTCAGTAGTTAAGCCGTGAGATTGCAGGGTGGGCCA
On to B8, for which, in the data set with GFP2 Left TAL-PBx, the activity worked out at 23.5 % GFP+.

For the origin of these results see patent US20240392262A1, “TRANSPOSASE AND USES THEREOF” (Poseida Therapeutics, Inc., published 2024).
